Kd, koff and kon data for four substances are collected here from paper PMC4752726.

Common to all, as to assay: BLI
In assay [1] the target is C-terminally biotinylated FcγRIIIa made from FcγRIIIa-ST-H6 by sortase-mediated ligation (human) (UniProt P08637).
For assay [2], the target named is Man5-IgG1 Fc glycoform (Man5-Fc) (human).
In assay [3] the target is GlcNAc-IgG1 Fc glycoform (GlcNAc-Fc) (human).
Assay [4] deals with High mannose IgG1 Fc (HM-Fc), di-glycosylated form (human).

With “GlcNAc-IgG1 Fc glycoform (GlcNAc-Fc) (domain or fragment)”, in assay [1], the Kd was found to be 0.995 µM and the off-rate (koff) was 0.161 s⁻¹.

As for “High mannose IgG1 Fc (HM-Fc), di-glycosylated form (domain or fragment)”, in assay [1], the equilibrium dissociation constant (Kd) turned out to be 0.0264 µM and the off-rate constant (koff) is 0.0079 s⁻¹.

In assay [1], “Man5-IgG1 Fc glycoform (Man5-Fc) (domain or fragment)” showed a Kd of 0.0328 µM.

Turning to “soluble domain of FcγRIIIa with a C-terminal histidine tag (FcγRIIIa-H6) (receptor)”, in assay [2], the Kd turned out to be 0.0318 µM, the koff was 0.0051 s⁻¹ and the kon stood at 160000 M⁻¹ s⁻¹. For the same substance, in assay [3], the Kd was 1.11 µM, the koff came to 0.14 s⁻¹ and the on-rate (kon) is 120000 M⁻¹ s⁻¹. In assay [4], this substance yielded a Kd of 0.0277 µM, an off-rate constant (koff) of 0.0054 s⁻¹ and a kon of 190000 M⁻¹ s⁻¹.
